Data on one molecule can be found in article PMC9692514, “Identification of a Novel p53 Modulator Endowed with Antitumoural and Antibacterial Activity through a Scaffold Repurposing Approach” (Pharmaceuticals, 2022).

The assay has as its target T1, recombinant human His-tagged p53 protein (residues 1–312) (human, UniProt P04637 1-312).
T1 construct: p53, human, residues 1-312; source: final dialysis with 0.2 mM ZnCl2
As to the kind of experiment: NMR antagonist-induced dissociation assay (AIDA), 1D proton spectra; Trp NHε side-chain signals of the MDM2–p53 complex; 0.1 mM proteins, 25 °C, 20 mM Tris-HCl, 150 mM KCl, pH 7.4, 5 mM β-mercaptoethanol, 0.02% NaN3; also after RM37 (0.2 mM). The conditions noted are these: both partners purified.

T1 sequence (P04637 1-312): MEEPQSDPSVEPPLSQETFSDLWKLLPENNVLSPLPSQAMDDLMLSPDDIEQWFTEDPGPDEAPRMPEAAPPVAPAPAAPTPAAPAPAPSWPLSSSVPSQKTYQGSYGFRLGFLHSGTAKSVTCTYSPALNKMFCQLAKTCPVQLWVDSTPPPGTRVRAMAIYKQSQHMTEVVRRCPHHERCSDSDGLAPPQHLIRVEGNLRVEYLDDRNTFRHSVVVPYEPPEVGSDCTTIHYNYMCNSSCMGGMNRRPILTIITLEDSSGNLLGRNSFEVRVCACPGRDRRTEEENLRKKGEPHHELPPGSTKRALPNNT

B1: recombinant human His-tagged N-terminal region of MDM2 (residues 1–118) (domain or fragment, UniProt Q00987 1-118, looked up)
chain: MCNTNMSVPTDGAVTTSQIPASEQETLVRPKPLLLKLLKSVGAQKDTYTMKEVLFYLGQYIMTKRLYDEKQQHIVYCSNDLLGDLFGVPSFSVKEHRKIYTMIYRNLVVVNQQESSDS
notes: MDM2 (HDM2), human, N-terminal region, residues 1-118; Cloned in a derivative of the vector pET-46Ek/LIC (Novagen); that vector probably adds the His tag at the N-terminus (surmised); No cleavage of the tag is told; also called HDM2
For B1, the binding result is given as “binds”.
